In patent US20180155451A1 (published 2018):

T1: FcγRIIb (human, UniProt P31994 43-217)
T1 construct: extracellular domain; also called 2b; FcgRIIb
T1 sequence (looked up): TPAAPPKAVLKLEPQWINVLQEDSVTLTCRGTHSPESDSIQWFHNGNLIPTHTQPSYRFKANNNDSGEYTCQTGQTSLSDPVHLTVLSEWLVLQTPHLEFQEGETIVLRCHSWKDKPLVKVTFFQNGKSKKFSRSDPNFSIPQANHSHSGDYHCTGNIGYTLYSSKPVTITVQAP

B1: GpH7-A5/GpH7-B3 variant G237_09D/GpL16-k0 (antibody, human IgG1, kappa)
heavy 1: not shown
heavy 2: not shown
light: DIVMTQSPLSLPVTPGEPASISCQASESLVHSNRNTYLHWYLQKPGQSPQLLIYKVSNRFSGVPDRFSGSGSGTDFTLKISRVEAEDVGVYYCSQNTHVPPTFGQGTKVEIERTVAAPSVFIFPPSDEQLKSGTASVVCLLNNFYPREAKVQWKVDNALQSGNSQESVTEQDSKDSTYSLSSTLTLSKADYEKHKVYACEVTHQGLSSPVTKSFNRGEC
notes: also called He Ab G237_09D
B2: GpH7-A5/GpH7-B3 variant I336_06M/GpL16-k0 (antibody, human IgG1, kappa)
heavy 1: not shown
heavy 2: not shown
light: B1 light
notes: also called He Ab I336_06M
B3: GpH7-A5/GpH7-B3 variant L234_10E/GpL16-k0 (antibody, human IgG1, kappa)
heavy 1: not shown
heavy 2: not shown
light: B1 light
notes: also called He Ab L234_10E
B4: GpH7-A5/GpH7-B3 variant K326_20W/GpL16-k0 (antibody, human IgG1, kappa)
heavy 1: not shown
heavy 2: not shown
light: B1 light
notes: also called He Ab K326_20W
B5: GpH7-A5/GpH7-B3 variant L235_20W/GpL16-k0 (antibody, human IgG1, kappa)
heavy 1: not shown
heavy 2: not shown
light: B1 light
notes: also called He Ab L235_20W
B6: GpH7-A5/GpH7-B3 variant I332_14T/GpL16-k0 (antibody, human IgG1, kappa)
heavy 1: not shown
heavy 2: not shown
light: B1 light
notes: also called He Ab I332_14T
B7: GpH7-A5/GpH7-B3 variant P238_10E/GpL16-k0 (antibody, human IgG1, kappa)
heavy 1: not shown
heavy 2: not shown
light: B1 light
notes: also called He Ab P238_10E
B8: GpH7-A5/GpH7-B3 variant H268_05P/GpL16-k0 (antibody, human IgG1, kappa)
heavy 1: not shown
heavy 2: not shown
light: B1 light
notes: also called He Ab H268_05P
B9: GpH7-A5/GpH7-B3 variant G237_15Y/GpL16-k0 (antibody, human IgG1, kappa)
heavy 1: not shown
heavy 2: not shown
light: B1 light
notes: also called He Ab G237_15Y
B10: GpH7-A5/GpH7-B3 variant G237_13S/GpL16-k0 (antibody, human IgG1, kappa)
heavy 1: not shown
heavy 2: not shown
light: B1 light
notes: also called He Ab G237_13S
B11: GpH7-A5/GpH7-B3 variant N325_08L/GpL16-k0 (antibody, human IgG1, kappa)
heavy 1: not shown
heavy 2: not shown
light: B1 light
notes: also called He Ab N325_08L
B12: GpH7-A5/GpH7-B3 variant P238_16H/GpL16-k0 (antibody, human IgG1, kappa)
heavy 1: not shown
heavy 2: not shown
light: B1 light
notes: also called He Ab P238_16H
B13: GpH7-A5/GpH7-B3 variant L328_02A/GpL16-k0 (antibody, human IgG1, kappa)
heavy 1: not shown
heavy 2: not shown
light: B1 light
notes: also called He Ab L328_02A
B14: GpH7-A5/GpH7-B3 variant P238_09D/GpL16-k0 (antibody, human IgG1, kappa)
heavy 1: not shown
heavy 2: not shown
light: B1 light
notes: also called He Ab P238_09D
B15: GpH7-A5/GpH7-B3 variant G237_18N/GpL16-k0 (antibody, human IgG1, kappa)
heavy 1: not shown
heavy 2: not shown
light: B1 light
notes: also called He Ab G237_18N
B16: GpH7-A5/GpH7-B3 variant L235_15Y/GpL16-k0 (antibody, human IgG1, kappa)
heavy 1: not shown
heavy 2: not shown
light: B1 light
notes: also called He Ab L235_15Y
B17: GpH7-A5/GpH7-B3 variant I336_08L/GpL16-k0 (antibody, human IgG1, kappa)
heavy 1: not shown
heavy 2: not shown
light: B1 light
notes: also called He Ab I336_08L
B18: GpH7-A5/GpH7-B3 variant L328_09D/GpL16-k0 (antibody, human IgG1, kappa)
heavy 1: not shown
heavy 2: not shown
light: B1 light
notes: also called He Ab L328_09D
B19: GpH7-A5/GpH7-B3 variant P238_15Y/GpL16-k0 (antibody, human IgG1, kappa)
heavy 1: not shown
heavy 2: not shown
light: B1 light
notes: also called He Ab P238_15Y
B20: GpH7-A5/GpH7-B3 variant N325_01G/GpL16-k0 (antibody, human IgG1, kappa)
heavy 1: not shown
heavy 2: not shown
light: B1 light
notes: also called He Ab N325_01G
B21: GpH7-A5/GpH7-B3 variant P238_04F/GpL16-k0 (antibody, human IgG1, kappa)
heavy 1: not shown
heavy 2: not shown
light: B1 light
notes: also called He Ab P238_04F
B22: GpH7-A5/GpH7-B3 variant L234_20W/GpL16-k0 (antibody, human IgG1, kappa)
heavy 1: not shown
heavy 2: not shown
light: B1 light
notes: also called He Ab L234_20W
B23: GpH7-A5/GpH7-B3 variant K326_07I/GpL16-k0 (antibody, human IgG1, kappa)
heavy 1: not shown
heavy 2: not shown
light: B1 light
notes: also called He Ab K326_07I
B24: GpH7-A5/GpH7-B3 variant H268_03V/GpL16-k0 (antibody, human IgG1, kappa)
heavy 1: not shown
heavy 2: not shown
light: B1 light
notes: also called He Ab H268_03V
B25: GpH7-A5/GpH7-B3 variant P238_03V/GpL16-k0 (antibody, human IgG1, kappa)
heavy 1: not shown
heavy 2: not shown
light: B1 light
notes: also called He Ab P238_03V
B26: GpH7-A5/GpH7-B3 variant N325_04F/GpL16-k0 (antibody, human IgG1, kappa)
heavy 1: not shown
heavy 2: not shown
light: B1 light
notes: also called He Ab N325_04F
B27: GpH7-A5/GpH7-B3 variant N325_13S/GpL16-k0 (antibody, human IgG1, kappa)
heavy 1: not shown
heavy 2: not shown
light: B1 light
notes: also called He Ab N325_13S
B28: GpH7-A5/GpH7-B3 variant K326_08L/GpL16-k0 (antibody, human IgG1, kappa)
heavy 1: not shown
heavy 2: not shown
light: B1 light
notes: also called He Ab K326_08L
B29: GpH7-A5/GpH7-B3 variant G237_20W/GpL16-k0 (antibody, human IgG1, kappa)
heavy 1: not shown
heavy 2: not shown
light: B1 light
notes: also called He Ab G237_20W
B30: GpH7-A5/GpH7-B3 variant L234_09D/GpL16-k0 (antibody, human IgG1, kappa)
heavy 1: not shown
heavy 2: not shown
light: B1 light
notes: also called He Ab L234_09D
B31: GpH7-A5/GpH7-B3 variant N325_03V/GpL16-k0 (antibody, human IgG1, kappa)
heavy 1: not shown
heavy 2: not shown
light: B1 light
notes: also called He Ab N325_03V
B32: GpH7-A5/GpH7-B3 variant H268_15Y/GpL16-k0 (antibody, human IgG1, kappa)
heavy 1: not shown
heavy 2: not shown
light: B1 light
notes: also called He Ab H268_15Y
B33: GpH7-A5/GpH7-B3 variant G237_10E/GpL16-k0 (antibody, human IgG1, kappa)
heavy 1: not shown
heavy 2: not shown
light: B1 light
notes: also called He Ab G237_10E
B34: GpH7-A5/GpH7-B3 variant L235_09D/GpL16-k0 (antibody, human IgG1, kappa)
heavy 1: not shown
heavy 2: not shown
light: B1 light
notes: also called He Ab L235_09D
B35: GpH7-A5/GpH7-B3 variant N325_09D/GpL16-k0 (antibody, human IgG1, kappa)
heavy 1: not shown
heavy 2: not shown
light: B1 light
notes: also called He Ab N325_09D
B36: GpH7-A5/GpH7-B3 variant L328_13S/GpL16-k0 (antibody, human IgG1, kappa)
heavy 1: not shown
heavy 2: not shown
light: B1 light
notes: also called He Ab L328_13S
B37: GpH7-A5/GpH7-B3 variant G237_19Q/GpL16-k0 (antibody, human IgG1, kappa)
heavy 1: not shown
heavy 2: not shown
light: B1 light
notes: also called He Ab G237_19Q
B38: GpH7-A5/GpH7-B3 variant L328_10E/GpL16-k0 (antibody, human IgG1, kappa)
heavy 1: not shown
heavy 2: not shown
light: B1 light
notes: also called He Ab L328_10E
B39: GpH7-A5/GpH7-B3 variant I332_02A/GpL16-k0 (antibody, human IgG1, kappa)
heavy 1: not shown
heavy 2: not shown
light: B1 light
notes: also called He Ab I332_02A
B40: GpH7-A5/GpH7-B3 variant N325_06M/GpL16-k0 (antibody, human IgG1, kappa)
heavy 1: not shown
heavy 2: not shown
light: B1 light
notes: also called He Ab N325_06M
B41: GpH7-A5/GpH7-B3 variant L235_04F/GpL16-k0 (antibody, human IgG1, kappa)
heavy 1: not shown
heavy 2: not shown
light: B1 light
notes: also called He Ab L235_04F
B42: GpH7-A5/GpH7-B3 variant N325_07I/GpL16-k0 (antibody, human IgG1, kappa)
heavy 1: not shown
heavy 2: not shown
light: B1 light
notes: also called He Ab N325_07I
B43: GpH7-A5/GpH7-B3 variant P238_06M/GpL16-k0 (antibody, human IgG1, kappa)
heavy 1: not shown
heavy 2: not shown
light: B1 light
notes: also called He Ab P238_06M
B44: GpH7-A5/GpH7-B3 variant N325_20W/GpL16-k0 (antibody, human IgG1, kappa)
heavy 1: not shown
heavy 2: not shown
light: B1 light
notes: also called He Ab N325_20W

target: T1, FcγRIIb; test: SPR (Biacore), binding relative to GpH7-A5/GpH7-B3/GpL16-k0 = 100
Procedure: Analysis of interaction between objective antibody and the FcγR was carried out using Biacore T100 (GE Healthcare). HBS-EP+ (GE Healthcare) was used as the running buffer, and the measurement temperature was set to 25° C. Chips produced by immobilizing the antigen peptide by the amine coupling method to a Series S Sencor Chip CM5 (GE Healthcare), or alternatively, chips produced by allowing preliminarily biotinylated antigen peptides to interact with and immobilize onto a Series S Sensor Chip SA (certified) (GE Healthcare) were used. Antibodies of interest were captured onto an antigen peptide-immobilized chip, and allowed to interact to each FcγR diluted with running buffer. To regenerate and repeatedly use the chip, the antibodies captured on the chip were washed off by reacting 10 mM glycine-HCl, pH 1.5.
The FcγR-binding activity of each antibody was assessed primarily using as an indicator the FcγR-binding activity and dissociation constant for FcγR.

Row | He/Con_2b | Binder
1 | 223 % of control | B1
2 | 101 % of control | B2
3 | 118 % of control | B3
4 | 148 % of control | B4
5 | 147 % of control | B5
6 | 106 % of control | B6
7 | 232 % of control | B7
8 | 116 % of control | B8
9 | 152 % of control | B9
10 | 111 % of control | B10
11 | 197 % of control | B11
12 | 115 % of control | B12
13 | 144 % of control | B13
14 | 221 % of control | B14
15 | 180 % of control | B15
16 | 149 % of control | B16
17 | 107 % of control | B17
18 | 199 % of control | B18
19 | 218 % of control | B19
20 | 101 % of control | B20
21 | 312 % of control | B21
22 | 114 % of control | B22

Row | He/Con_2b | Binder
23 | 199 % of control | B23
24 | 114 % of control | B24
25 | 120 % of control | B25
26 | 143 % of control | B26
27 | 177 % of control | B27
28 | 177 % of control | B28
29 | 193 % of control | B29
30 | 150 % of control | B30
31 | 111 % of control | B31
32 | 106 % of control | B32
33 | 114 % of control | B33
34 | 106 % of control | B34
35 | 124 % of control | B35
36 | 149 % of control | B36
37 | 108 % of control | B37
38 | 172 % of control | B38
39 | 103 % of control | B39
40 | 217 % of control | B40
41 | 118 % of control | B41
42 | 171 % of control | B42
43 | 174 % of control | B43
44 | 169 % of control | B44
